Key:
Assay in all cases: cell-based or functional assay
DRAK1(h) (human) = molecular target: T1, DRAK1(h) (human) (UniProt Q9UEE5)
T1 sequence (looked up): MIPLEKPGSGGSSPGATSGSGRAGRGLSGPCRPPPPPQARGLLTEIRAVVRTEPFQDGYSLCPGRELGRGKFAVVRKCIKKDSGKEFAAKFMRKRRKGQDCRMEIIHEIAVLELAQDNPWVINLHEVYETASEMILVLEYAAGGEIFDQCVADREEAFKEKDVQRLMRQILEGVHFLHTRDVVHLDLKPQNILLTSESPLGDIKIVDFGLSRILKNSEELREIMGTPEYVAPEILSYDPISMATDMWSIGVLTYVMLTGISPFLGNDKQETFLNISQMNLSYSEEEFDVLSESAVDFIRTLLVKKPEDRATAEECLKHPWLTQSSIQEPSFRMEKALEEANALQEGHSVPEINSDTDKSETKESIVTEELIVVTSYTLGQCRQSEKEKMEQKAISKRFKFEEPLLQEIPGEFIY

Hck(h) (human) = Hck(h) (human) (UniProt P08631)
IKKβ(h) (human) = molecular target: T2, IKKβ(h) (human) (UniProt O14920)
T2 sequence (looked up): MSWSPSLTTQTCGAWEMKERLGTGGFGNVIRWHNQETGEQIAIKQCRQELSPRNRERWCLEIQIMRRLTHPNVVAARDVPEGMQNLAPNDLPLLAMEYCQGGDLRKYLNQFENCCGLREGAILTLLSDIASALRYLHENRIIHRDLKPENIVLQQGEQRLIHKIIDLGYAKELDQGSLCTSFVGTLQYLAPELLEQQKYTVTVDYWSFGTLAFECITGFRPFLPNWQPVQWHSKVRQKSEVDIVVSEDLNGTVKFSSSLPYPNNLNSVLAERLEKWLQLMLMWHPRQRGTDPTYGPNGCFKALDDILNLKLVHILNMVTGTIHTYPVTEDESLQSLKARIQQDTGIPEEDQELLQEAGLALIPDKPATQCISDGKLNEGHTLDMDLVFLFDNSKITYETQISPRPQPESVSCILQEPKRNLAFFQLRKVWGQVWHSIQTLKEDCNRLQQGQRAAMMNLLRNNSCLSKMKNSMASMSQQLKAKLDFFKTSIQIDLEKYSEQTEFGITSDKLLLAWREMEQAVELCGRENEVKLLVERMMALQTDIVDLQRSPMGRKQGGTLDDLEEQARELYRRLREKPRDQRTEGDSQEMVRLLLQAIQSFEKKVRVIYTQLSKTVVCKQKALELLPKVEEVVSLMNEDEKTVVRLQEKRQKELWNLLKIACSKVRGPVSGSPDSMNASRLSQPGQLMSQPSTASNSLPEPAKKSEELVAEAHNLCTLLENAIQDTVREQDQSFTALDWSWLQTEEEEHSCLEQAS

Met(h) (human) = Met(h) (human) (UniProt P08581)
PKCβI(h) (human) = PKCβI(h) (human) (UniProt P05771)
Ron(h) (human) = Ron(h) (human) (UniProt Q04912)
SGK3(h) (human) = molecular target: T3, SGK3(h) (human) (UniProt Q96BR1)
T3 sequence (looked up): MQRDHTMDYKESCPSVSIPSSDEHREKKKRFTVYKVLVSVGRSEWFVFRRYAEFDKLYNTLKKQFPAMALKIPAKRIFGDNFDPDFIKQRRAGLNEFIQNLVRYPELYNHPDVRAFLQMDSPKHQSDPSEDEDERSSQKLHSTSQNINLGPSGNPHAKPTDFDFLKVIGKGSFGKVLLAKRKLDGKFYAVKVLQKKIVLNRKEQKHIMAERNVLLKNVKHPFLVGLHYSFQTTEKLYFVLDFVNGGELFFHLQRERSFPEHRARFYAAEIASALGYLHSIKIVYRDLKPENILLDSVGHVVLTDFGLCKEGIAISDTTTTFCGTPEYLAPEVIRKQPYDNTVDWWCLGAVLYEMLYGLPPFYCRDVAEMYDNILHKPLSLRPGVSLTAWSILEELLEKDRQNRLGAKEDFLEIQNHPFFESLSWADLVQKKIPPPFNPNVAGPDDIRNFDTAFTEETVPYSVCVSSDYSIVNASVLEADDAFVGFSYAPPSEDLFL

TBK1(h) (human) = molecular target: T4, TBK1(h) (human) (UniProt Q9UHD2)
T4 sequence (looked up): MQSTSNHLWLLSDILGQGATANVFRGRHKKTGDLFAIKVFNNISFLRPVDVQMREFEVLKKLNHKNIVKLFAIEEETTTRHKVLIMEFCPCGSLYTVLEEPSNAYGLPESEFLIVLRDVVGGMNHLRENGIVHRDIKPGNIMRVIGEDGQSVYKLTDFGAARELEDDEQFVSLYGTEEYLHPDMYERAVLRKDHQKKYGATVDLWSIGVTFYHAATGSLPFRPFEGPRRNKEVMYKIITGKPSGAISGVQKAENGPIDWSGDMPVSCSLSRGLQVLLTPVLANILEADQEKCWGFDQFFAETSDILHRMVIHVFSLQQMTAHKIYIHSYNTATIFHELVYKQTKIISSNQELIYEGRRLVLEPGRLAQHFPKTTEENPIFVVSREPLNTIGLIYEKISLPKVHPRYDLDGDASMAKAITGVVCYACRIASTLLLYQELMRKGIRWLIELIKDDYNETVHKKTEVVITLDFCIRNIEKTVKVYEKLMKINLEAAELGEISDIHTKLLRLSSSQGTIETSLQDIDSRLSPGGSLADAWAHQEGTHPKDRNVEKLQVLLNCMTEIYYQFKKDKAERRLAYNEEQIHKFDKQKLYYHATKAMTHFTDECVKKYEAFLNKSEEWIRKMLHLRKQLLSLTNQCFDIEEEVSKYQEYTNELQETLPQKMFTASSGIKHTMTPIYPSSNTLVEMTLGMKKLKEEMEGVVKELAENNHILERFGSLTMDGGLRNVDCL

Sequence of Met(h) (human) (P08581 956-1390 limits assumed): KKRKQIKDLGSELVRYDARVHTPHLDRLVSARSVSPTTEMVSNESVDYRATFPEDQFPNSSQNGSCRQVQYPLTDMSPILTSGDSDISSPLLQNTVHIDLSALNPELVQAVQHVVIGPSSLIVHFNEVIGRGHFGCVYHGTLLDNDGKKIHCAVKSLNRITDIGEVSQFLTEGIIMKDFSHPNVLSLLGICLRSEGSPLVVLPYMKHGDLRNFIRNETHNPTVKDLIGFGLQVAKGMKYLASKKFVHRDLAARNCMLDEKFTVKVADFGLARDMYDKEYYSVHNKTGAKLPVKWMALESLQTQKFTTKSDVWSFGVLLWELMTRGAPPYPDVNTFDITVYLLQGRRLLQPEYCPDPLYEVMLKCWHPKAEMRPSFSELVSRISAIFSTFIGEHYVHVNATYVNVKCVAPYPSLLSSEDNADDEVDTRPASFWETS
Sequence of Ron(h) (human) (Q04912 983-1400 limits assumed): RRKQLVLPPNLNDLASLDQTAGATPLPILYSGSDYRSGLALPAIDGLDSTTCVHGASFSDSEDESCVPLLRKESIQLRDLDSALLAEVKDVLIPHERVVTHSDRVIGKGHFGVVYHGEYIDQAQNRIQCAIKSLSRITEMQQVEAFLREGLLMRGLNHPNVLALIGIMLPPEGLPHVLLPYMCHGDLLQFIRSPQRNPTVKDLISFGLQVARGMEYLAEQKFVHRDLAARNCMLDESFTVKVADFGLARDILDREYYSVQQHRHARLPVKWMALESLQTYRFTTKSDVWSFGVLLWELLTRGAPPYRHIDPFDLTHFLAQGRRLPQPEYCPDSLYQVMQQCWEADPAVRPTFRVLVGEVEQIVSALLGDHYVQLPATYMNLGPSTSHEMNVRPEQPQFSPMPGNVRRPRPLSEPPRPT

Substance | % activity at 100 µM (DRAK1(h) (human)) [%] | % activity at 100 µM (Hck(h) (human)) [%] | % activity at 100 µM (IKKβ(h) (human)) [%] | % activity at 100 µM (Met(h) (human)) [%] | % activity at 100 µM (PKCβI(h) (human)) [%] | % activity at 100 µM (Ron(h) (human)) [%] | % activity at 100 µM (SGK3(h) (human)) [%] | % activity at 100 µM (TBK1(h) (human)) [%]
MMI-0300 (peptide) | 14 | 72 | 84 | 65 | 78 | 93 | 10 | 37
MMI-0400 (peptide) | 14 | 72 | 84 | 62 | 78 | 79 | 8 | 39
MMI-0500 (peptide) | 8 | 78 | 71 | 27 | 1 | 46 | -3 | 16
